Data: article PMC4169556, “Isolation of Dihydroflavonol 4-Reductase cDNA Clones from Angelonia x angustifolia and Heterologous Expression as GST Fusion Protein in Escherichia coli” (PLoS ONE, 2014)

How the values were obtained:
[1] = substrate: O=C1c2c(O)cc(O)cc2O[C@H](c2ccc(O)c(O)c2)[C@H]1O; assay: cells, lysate or membranes; type: biochemical, Angelonia angustifolia; details: NADPH, pH 6.5, 25 °C (standard assay), yeast protein fraction, labelled compound
[2] = substrate: O=C1c2c(O)cc(O)cc2O[C@H](c2cc(O)c(O)c(O)c2)[C@H]1O; assay: cells, lysate or membranes; type: biochemical, Angelonia angustifolia; details: NADPH, pH 6.5, 25 °C (standard assay), yeast protein fraction, labelled compound

B1: Ang.DFR2 (Angelonia angustifolia) (protein)
chain: METTATQPPPPSSAAAVPATVCVTGAAGFIGSWLVMKLLQRGYNVRATVRDPGNLKKIKHLTQLPKADTNLTLWKADLMEEASFDEAIEGCQGVFHLATPMEFDSKDPENEVIKPTIEGMMSIIRSCAKAKTVEKVIFTTSAGTLNVEEHQKPFYDETSWSDLDFIYSKKMTGWMYFVSKYLAEKQAVEAAKLNNIEFISIIPPVVVGPFINPAFPPSLVTALSPITGNEAHYTIMKQGQFVHLDDICEAHIFLFEHPKADGRYICSSHDATIYDIARLIRDKWPEYNVPMEFKGIDKDIPVVRFSSKKLTSMGFKFKYSLEDMYRGAIETCREKGLLPYSTHNQSNGEKKESTLQSLEKHSDDQEKVLEKRVNGRLDKQFEEQKKELLPIREEKHTNGSLEKCSDDQAKVLLPLPEEKQTNGSLEKHVMINIKTCE
notes: full-length ORF, 437 residues; pYES2.1/V5-His-TOPO in S. cerevisiae INVSc1, protein fraction, not purified
- Km [1]: 11 µM
- Km [2]: 6.5 µM
